Assay results as given in patent US11325966.

Key:
Assay in all cases: cell-based or functional assay
BG505 (T332N) (HIV-1) = molecular target: BG505 (T332N) (HIV-1)
JR-CSF R327A (HIV-1) = JR-CSF R327A (HIV-1) (UniProt P20871)
[1] = molecular target: BG505 (T332N) N301A (HIV-1)
[2] = molecular target: HIV-1 envelope (Env) of pseudovirus T251-18 (HIV-1)
[3] = molecular target: HIV-1 envelope (Env) of pseudovirus CNE58 (HIV-1)
[4] = molecular target: HIV-1 envelope (Env) of pseudovirus 191821_E6_1 (HIV-1)
[5] = molecular target: HIV-1 envelope (Env) of pseudovirus 6952.v1.c20 (HIV-1)
[6] = molecular target: HIV-1 envelope (Env) of pseudovirus CNE53 (HIV-1)
[7] = molecular target: HIV-1 envelope (Env) of pseudovirus 3103.v3.c10 (HIV-1)
[8] = molecular target: HIV-1 envelope (Env) of pseudovirus CNE8 (HIV-1)
[9] = molecular target: HIV-1 envelope (Env) of pseudovirus 231966.c02 (HIV-1)
[10] = molecular target: HIV-1 envelope (Env) of pseudovirus Ce2060_G9 (HIV-1)
[11] = molecular target: HIV-1 envelope (Env) of pseudovirus RHPA4259.7 (HIV-1)
[12] = molecular target: HIV-1 envelope (Env) of pseudovirus ZM135M.PL10a (HIV-1)
[13] = molecular target: HIV-1 envelope (Env) of pseudovirus C1080.c03 (HIV-1)
[14] = molecular target: HIV-1 envelope (Env) of pseudovirus 1056_10_TA11_1826 (HIV-1)
[15] = molecular target: HIV-1 envelope (Env) of pseudovirus 9004SS_A3_4 (HIV-1)
[16] = molecular target: HIV-1 envelope (Env) of pseudovirus WITO4160.33 (HIV-1)
[17] = molecular target: HIV-1 envelope (Env) of pseudovirus THRO4156.18 (HIV-1)
[18] = molecular target: HIV-1 envelope (Env) of pseudovirus HIV-001428-2.42 (HIV-1)
[19] = molecular target: HIV-1 envelope (Env) of pseudovirus 6540.v4.c1 (HIV-1)
[20] = molecular target: HIV-1 envelope (Env) of pseudovirus 620345.c01 (HIV-1)
[21] = molecular target: HIV-1 envelope (Env) of pseudovirus 1054_07_TC4_1499 (HIV-1)
[22] = molecular target: HIV-1 envelope (Env) of pseudovirus 0815.v3.c3 (HIV-1)
[23] = molecular target: HIV-1 envelope (Env) of pseudovirus Ce2010_F5 (HIV-1)
[24] = molecular target: HIV-1 envelope (Env) of pseudovirus 263-8 (HIV-1)
[25] = molecular target: HIV-1 envelope (Env) of pseudovirus 1394C9G1 (Rev-) (HIV-1)
[26] = molecular target: HIV-1 envelope (Env) of pseudovirus X2131_C1_B5 (HIV-1)
[27] = molecular target: HIV-1 envelope (Env) of pseudovirus 3365.v2.c2 (HIV-1)
[28] = molecular target: HIV-1 envelope (Env) of pseudovirus Ce703010054_2A2 (HIV-1)
[29] = molecular target: HIV-1 envelope (Env) of pseudovirus R3265.c06 (HIV-1)
[30] = molecular target: HIV-1 envelope (Env) of pseudovirus QH0692.42 (HIV-1)
[31] = molecular target: HIV-1 envelope (Env) of pseudovirus HIV-16845-2.22 (HIV-1)
[32] = molecular target: HIV-1 envelope (Env) of pseudovirus BG505/T332N (HIV-1)
[33] = molecular target: HIV-1 envelope (Env) of pseudovirus 928-28 (HIV-1)
[34] = molecular target: HIV-1 envelope (Env) of pseudovirus 3301.v1.c24 (HIV-1)
[35] = molecular target: HIV-1 YU2 Env N280Y, on pseudovirus (HIV-1) (UniProt P35961)
[36] = molecular target: HIV-1 YU2 Env N332K, on pseudovirus (HIV-1) (UniProt P35961)

354BG8 (antibody)
IC50 in TZM-bl assay (BG505 (T332N) (HIV-1)): 0.007 µg/mL | IC50 in TZM-bl assay (JR-CSF R327A (HIV-1)): 0.005 µg/mL | IC50 in TZM-bl assay [1]: 0.004 µg/mL

BG1 (antibody)
IC50 in TZM-bl assay [2]: 3.59 µg/mL | IC80 in TZM-bl assay [2]: 18 µg/mL | IC50 in TZM-bl assay [3]: > 30 µg/mL | IC80 in TZM-bl assay [3]: > 30 µg/mL | IC50 in TZM-bl assay [4]: > 30 µg/mL | IC80 in TZM-bl assay [4]: > 30 µg/mL | IC50 in TZM-bl assay [5]: > 30 µg/mL | IC80 in TZM-bl assay [5]: > 30 µg/mL | IC50 in TZM-bl assay [6]: 1.32 µg/mL | IC80 in TZM-bl assay [6]: 7.47 µg/mL | IC50 in TZM-bl assay [7]: > 30 µg/mL | IC80 in TZM-bl assay [7]: > 30 µg/mL | IC50 in TZM-bl assay [8]: > 30 µg/mL | IC80 in TZM-bl assay [8]: > 30 µg/mL | IC50 in TZM-bl assay [9]: > 30 µg/mL | IC80 in TZM-bl assay [9]: > 30 µg/mL | IC50 in TZM-bl assay [10]: > 30 µg/mL | IC80 in TZM-bl assay [10]: > 30 µg/mL | IC50 in TZM-bl assay [11]: > 30 µg/mL | IC80 in TZM-bl assay [11]: > 30 µg/mL | IC50 in TZM-bl assay [12]: > 30 µg/mL | IC80 in TZM-bl assay [12]: > 30 µg/mL | IC50 in TZM-bl assay [13]: 0.002 µg/mL | IC80 in TZM-bl assay [13]: 0.005 µg/mL | IC50 in TZM-bl assay [14]: 5.43 µg/mL | IC80 in TZM-bl assay [14]: 29.9 µg/mL | IC50 in TZM-bl assay [15]: > 30 µg/mL | IC80 in TZM-bl assay [15]: > 30 µg/mL | IC50 in TZM-bl assay [16]: 0.002 µg/mL | IC80 in TZM-bl assay [16]: 0.014 µg/mL | IC50 in TZM-bl assay [17]: > 30 µg/mL | IC80 in TZM-bl assay [17]: > 30 µg/mL | IC50 in TZM-bl assay [18]: 1.09 µg/mL | IC80 in TZM-bl assay [18]: 3.12 µg/mL | IC50 in TZM-bl assay [19]: > 30 µg/mL | IC80 in TZM-bl assay [19]: > 30 µg/mL | IC50 in TZM-bl assay [20]: 0.626 µg/mL | IC80 in TZM-bl assay [20]: 4.23 µg/mL | IC50 in TZM-bl assay [21]: > 30 µg/mL | IC80 in TZM-bl assay [21]: > 30 µg/mL | IC50 in TZM-bl assay [22]: > 30 µg/mL | IC80 in TZM-bl assay [22]: > 30 µg/mL | IC50 in TZM-bl assay [23]: > 30 µg/mL | IC80 in TZM-bl assay [23]: > 30 µg/mL | IC50 in TZM-bl assay [24]: > 30 µg/mL | IC80 in TZM-bl assay [24]: > 30 µg/mL | IC50 in TZM-bl assay [25]: 1.28 µg/mL | IC80 in TZM-bl assay [25]: 7.25 µg/mL | IC50 in TZM-bl assay [26]: 0.116 µg/mL | IC80 in TZM-bl assay [26]: 0.313 µg/mL | IC50 in TZM-bl assay [27]: 1.16 µg/mL | IC80 in TZM-bl assay [27]: 4.27 µg/mL | IC50 in TZM-bl assay [28]: > 30 µg/mL | IC80 in TZM-bl assay [28]: > 30 µg/mL | IC50 in TZM-bl assay [29]: 0.611 µg/mL | IC80 in TZM-bl assay [29]: 3.44 µg/mL | IC50 in TZM-bl assay [30]: > 30 µg/mL | IC80 in TZM-bl assay [30]: > 30 µg/mL | IC50 in TZM-bl assay [31]: > 30 µg/mL | IC80 in TZM-bl assay [31]: > 30 µg/mL | IC50 in TZM-bl assay [32]: 0.034 µg/mL | IC80 in TZM-bl assay [32]: 0.125 µg/mL | IC50 in TZM-bl assay [33]: > 30 µg/mL | IC80 in TZM-bl assay [33]: > 30 µg/mL | IC50 in TZM-bl assay [34]: > 30 µg/mL | IC80 in TZM-bl assay [34]: > 30 µg/mL

BG18 IgG (354BG18) (antibody)
IC50 in TZM-bl assay [35]: 0.005 µg/mL | IC80 in TZM-bl assay [35]: 0.016 µg/mL | IC50 in TZM-bl assay [36]: > 30 µg/mL | IC80 in TZM-bl assay [36]: > 30 µg/mL
